Key:
glycosylated GPC3 = target: T1, glycosylated GPC3 (Homo sapiens (assumed), UniProt P51654, heparan sulfate chains (glycosylated)); assay: ELISA; 96-well plate coated with 5 μg/ml of the GPC protein; HS20 added in serial 2-fold dilutions starting from 1 μg/ml, 1 hr at RT; washed with PBST; detected with goat anti-human kappa chain HRP conjugate and TMB, absorbance at 450 nm; details: both partners purified
T1 construct: glypican 3 (GPC3), glycosylated recombinant protein, R and D Systems Cat. # 2119-GP; also called glypican 3; source: bought: R and D Systems
T1 sequence (P51654 25-580): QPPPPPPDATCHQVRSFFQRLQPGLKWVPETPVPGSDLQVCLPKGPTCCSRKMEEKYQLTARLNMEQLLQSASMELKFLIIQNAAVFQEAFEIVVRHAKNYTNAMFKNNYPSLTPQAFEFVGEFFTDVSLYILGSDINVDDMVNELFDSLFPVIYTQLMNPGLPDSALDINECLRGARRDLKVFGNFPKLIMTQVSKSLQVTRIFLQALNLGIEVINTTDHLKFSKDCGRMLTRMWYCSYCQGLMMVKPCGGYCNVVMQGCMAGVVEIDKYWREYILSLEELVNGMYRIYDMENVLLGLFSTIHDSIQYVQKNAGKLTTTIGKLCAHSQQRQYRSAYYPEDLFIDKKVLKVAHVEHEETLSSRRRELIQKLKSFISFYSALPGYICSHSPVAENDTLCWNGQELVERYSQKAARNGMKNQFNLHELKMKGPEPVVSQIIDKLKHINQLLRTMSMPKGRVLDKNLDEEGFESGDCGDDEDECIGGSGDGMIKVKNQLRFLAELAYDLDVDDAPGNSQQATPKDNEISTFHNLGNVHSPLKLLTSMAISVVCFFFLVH

glycosylated GPC4 = target: T2, glycosylated GPC4 (Homo sapiens (assumed), UniProt O75487, heparan sulfate chains (glycosylated)); assay: as above; details: both partners purified
T2 construct: glypican 4 (GPC4), glycosylated recombinant protein, R and D Systems Cat. # 9195-GP; also called glypican 4; source: bought: R and D Systems
T2 sequence (O75487 19-529): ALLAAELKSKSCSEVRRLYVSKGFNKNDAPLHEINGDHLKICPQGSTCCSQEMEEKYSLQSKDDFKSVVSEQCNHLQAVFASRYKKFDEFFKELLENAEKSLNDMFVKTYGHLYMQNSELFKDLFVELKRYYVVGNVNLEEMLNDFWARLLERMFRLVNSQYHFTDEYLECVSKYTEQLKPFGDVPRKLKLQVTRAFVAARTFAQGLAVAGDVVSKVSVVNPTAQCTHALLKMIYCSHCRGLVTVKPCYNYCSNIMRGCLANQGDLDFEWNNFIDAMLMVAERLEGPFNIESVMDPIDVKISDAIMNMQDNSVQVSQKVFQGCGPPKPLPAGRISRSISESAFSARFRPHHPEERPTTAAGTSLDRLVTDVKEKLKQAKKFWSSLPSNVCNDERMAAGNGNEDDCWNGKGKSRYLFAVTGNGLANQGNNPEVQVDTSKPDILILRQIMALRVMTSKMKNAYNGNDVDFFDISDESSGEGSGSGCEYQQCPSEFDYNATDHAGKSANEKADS

- binding result (glycosylated GPC3): binds
- binding result (glycosylated GPC4): binds
B1: HS20 scFv (scFv, V domains shown)
VH: EVQLLESGGGLVQPGGSLRLSCAASGFTFSSYAMSWVRQAPGKGLEWVSTIQKQGLPTQYADSVKGRFTISRDNSKNTLYLQMNSLRAEDTAVYYCAKNRAKFDYWGQGTLVTVSS
VL: DIQMTQSPSSLSASVGDRVTITCRASQSISSYLNWYQQKPGKAPKLLIYAASMLQSGVPSRFSGSGSGTDFTLTISSLQPEDFATYYCQQNRGFPLTFGQGTKVEIK
notes: it was detected through its human kappa chain
